Results reported in the RNAGym collection of RNA variant scans (doi:10.1073/pnas.2313332121).

B1: TPR t1 (parent)
chain: GACCAAUCUGCCCUCAGAGCUCGAGAACAUCUUCGGAUGCAGAGGAGGCAGGCUUCGGUGGCGCGAUAGCGCCAACGUCCUCAACCUCCAAUGCAUCCCACCACAUGAUGAUGCCUGAAGAGCCUUGGUUUUUUG

Variants of: B1
Test: polymerase ribozyme fitness, log enrichment relative to wild type (log ratio); higher = more active; in vitro selection for triplet polymerase activity
How it was run: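 Both subunits of a heterodimeric triplet polymerase ribozyme were given their own mutant library, built by PCR and transcribed. Each library was annealed with a biotinylated primer, the partner subunit and triplets, incubated frozen at −7 °C, and its extended constructs gel-excised, captured on streptavidin beads and amplified by RT-PCR, all in one round done in triplicate. Fitness is the logarithm of genotype enrichment relative to wild-type enrichment, with replicates averaged by inverse-variance weighting. That logarithm is base 2, and Illumina-sequenced genotypes needed ≥10 input reads and ≥1 read per output.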

Variant | polymerase ribozyme fitness (log ratio)
G52U C80G | -4.76
A50U G69A | -3.65
G52A A90C A100U A111G | -2.82
G51U C70G | -5.67
G51U C70U | -3.37
A50G C86A C115G | -2.42
A50U C72U A74G | -1.22
C49G G69C | -1.79
C49U U87A | -0.416
G52U A74G A84G A121U | 0.168
A50G C99U G110C | -7.74
G51A C56G C124U | -1.06
A50G A91C | -1.05
C53A C70U | 0.0165
G52A G61A U132A | -0.488
G51U C104U | -3.67
G51U U55G | -3.24
A50C G71A U133C | -0.939
A50U G61U C86U | -1.34
G52A U59A | 0.487
C49U G107A G120C U130G | -6.54
G52C C72A C104U C115G U116C U126G | -6.41
G52U G61C G122A U125G | -1.37
G51A C62U U112A G113U | -4.77

Variant | polymerase ribozyme fitness (log ratio)
A50G C88A C97G | -4.42
C49G U106G U116C | -4.97
C49A U87C | 0.179
A50U G51A G60A | -4.34
C49A U131C | -0.0361
A50U U112A U125C | -0.475
A50U G61C C88U G113C | -5.11
C49G A83U | -0.66
G52A U78C C86A C124G G128A | -1.71
G51U C82G A83U U87A | -1.52
G51U U59A | -2.98
G52U U59C | -0.547
G52U U59A G113C A119G | -1.67
G51U A68U U106G G110U C124A | -5.92
G52U C70U | -1.49
C49U A84U C88A | -1.82
A50U A84G A111C | -4.92
G52U A83C C101G C115U | -4.77
C49G G51A U54G | -4.1
A50C C73A A74U | -1.27
G52A G93A | -0.652
C49U G69U G117U | -2.25
G51A C56A G93A C114U G117U | -6.47
G51A C99U | -7.64

Variant | polymerase ribozyme fitness (log ratio)
C49U G63C | -0.762
G51C A100U | -5.07
G52U C64G C94U U106A A119G | -6.74
G52A G135U | -1.86
C53A C56G C62U C89A G120C U134G | -0.681
G51C C64U | -3.9
G51A C88U | -2.93
A50C G63U G69U U81G G128C | -3.4
C49U A50C A111G | 0.0314
C49U G77A A90U A91G C102A | -6.02
G52A C101U | 0.00367
A50U C73A C76G U112A | -3.53
A50G C88G G120A C124U U126C | 0.11
G51A G113C G122U G135U | -7.38
C49U A118U | -0.365
G52A C115U | -2
C49G C62G C114A G117C | -7.8
G51A U112G | -3.74
G51A U112C | -2.05
G52A C124U | 0.924
C49U C72A C79G C104A | -4.65
C49U G69A | -3.63
G51A C53A U133A | -2.17
A50U U81A A100C | -1.2

Variant | polymerase ribozyme fitness (log ratio)
C53A C72U C86G C115U | -1.64
G51C U129A | -5.21
C49G U55C A95C C98U | -3.54
A50U C94U | -0.732
C49A U112A G127C | -0.179
C49G G63U | -2.09
A50G C85A | -2.34
G52U C53G U54C U78C C97U | -1.14
C53A A74U A95C G120A | -0.291
C49G G63C C80U U112A C124U | -5.99
G52C G69A C114U | -5.1
G51A U54G C73G C98U | -5.39
A50U G60A G93A | -1.39
A50C G52U C94A G117A | -6.56
G51A U96A | -4.59
C49G A119G C123G | 1.72
C49G C82G | -1.03
G52U G60U C73U U96G A121G | -0.386
G51U U55A C73U U78G C98U A105U | -7.15
C49G U130A | -1.8
C49G U109C | -4.72
G52U C53U C62U C85U U129A | -3.42
C49U A50U C82U | -1.71
C49U C104A | -2.12

Variant | polymerase ribozyme fitness (log ratio)
G52A G71C | -3.42
C49U G58A U125A | -1.44
G52U G58C G77A U87C U96G | -1.61
A50U C56A G69C C80G C104G C115G C123U U130C | -8.59
G51C G52U C102A C124A | -4.54
A50U U116A | -4.25
C53A A83G A105C | -3.47
C53A A68U | -6.8
C49G G71C A84U G110C | -6.35
A50U C64U | -0.813
G52U U54A G63A C115A | -0.839
A50G C99U | -3.27
A50G C53U G61C A90G G113A | -1.82
G52A U106G A111C | -2.25
C49U U81C A95G C102G G110U G135U | -7.51
C49U C89U A105U | -4.2
G51U G113U | -6.05
C49A U78A | -1.14
C53A A103U | -4.67
C49U U132A | -0.342
A50C G117C | -3.5
G52U U133G | -1.42
C49U C76G | -0.454
G51C G93U | -5.19

Variant | polymerase ribozyme fitness (log ratio)
A50C C72A | 0.00514
C49G G69U C115U | 0.956
A50C C94U | -0.435
G51U G71C U109G G117U C124G | -7.73
G51U G52A | -4.95
C49U A95U C102A | -3.2
C49U C56U C72G C101G | -3.7
G51U U116C | -4.25
G52C A119G C124U | 1.65
A50G U55C C88U G107C U112G C123G | -5.21
C49A U92G G117U C123U | -6.98
C49U G52U G61A G120A | -0.105
C49G C85A G113U | -4.81
G52A U55C C56A G57C | 0.195
A50C A121G | 1.73
G52U G69C | -1.54
A50C G61U C79A | -2.63
G52U G61C U131A | -1.22
C49U G128A | -2.63
C49U C53U C70U C79U | -4.07
G52A C114U | -2.52
G52A C114A | -2.73
G52A A74G G122A C124U | 0.026
G51A C64A | -6.96

Variant | polymerase ribozyme fitness (log ratio)
A50U A84C U125A | -1.62
A50C G113U | -3.73
G51A C85U | -3.77
C49U G117C | -3.03
G51A G60U G113A U116A | -7.25
A50C C56A | -0.326
C49U C62G | -4.14
C49A U54A C56U U112C | 1.59
G52A G63C | -0.879
C49U C53A C104U | -0.231
G52A A74G U78G C80A | -3.14
C49U G60C A103C U112A C123G | -4.76
C49U U106G | -2.35
C49A U96C G120U | -0.575
A50U C80A G122A G127C U129C | -5.15
C49G C88U C94U | -0.799
G52A C79A G110C | -5.08
C49G G117U | -2.86
C49G G117C | -4.72
C49U G113A | -1.68
C49U A90G | 0.52
C49G C89A | -2.67
G51C C53G G61U | -2.56
